Experimental data published in article doi:10.1101/2021.05.05.442822.
Each block holds one substance with its values, some of them ahead of it.

Experiments:
[1] = biological target: G9a ANK-SET, tag cleaved (human); assay: SEC-MALS
[2] = biological target: G9a ANK-SET, N-terminally 6xHis-tagged (His:G9a) or N-terminally Maltose Binding Protein tagged (MBP:G9a) (human); assay: pull-down
[3] = biological target: H3K9me0 peptide; assay: FP; details: complex
[4] = biological target: fluoresceinated H3 1-20 K9me2 peptide (UniProt P68431); assay: fluorescence polarisation
[5] = biological target: unmethylated (H3K9me0) mononucleosome; assay: fluorescence polarisation

Chain of G9a ANK-SET homodimer (Q96KQ7 whole entry, looked up): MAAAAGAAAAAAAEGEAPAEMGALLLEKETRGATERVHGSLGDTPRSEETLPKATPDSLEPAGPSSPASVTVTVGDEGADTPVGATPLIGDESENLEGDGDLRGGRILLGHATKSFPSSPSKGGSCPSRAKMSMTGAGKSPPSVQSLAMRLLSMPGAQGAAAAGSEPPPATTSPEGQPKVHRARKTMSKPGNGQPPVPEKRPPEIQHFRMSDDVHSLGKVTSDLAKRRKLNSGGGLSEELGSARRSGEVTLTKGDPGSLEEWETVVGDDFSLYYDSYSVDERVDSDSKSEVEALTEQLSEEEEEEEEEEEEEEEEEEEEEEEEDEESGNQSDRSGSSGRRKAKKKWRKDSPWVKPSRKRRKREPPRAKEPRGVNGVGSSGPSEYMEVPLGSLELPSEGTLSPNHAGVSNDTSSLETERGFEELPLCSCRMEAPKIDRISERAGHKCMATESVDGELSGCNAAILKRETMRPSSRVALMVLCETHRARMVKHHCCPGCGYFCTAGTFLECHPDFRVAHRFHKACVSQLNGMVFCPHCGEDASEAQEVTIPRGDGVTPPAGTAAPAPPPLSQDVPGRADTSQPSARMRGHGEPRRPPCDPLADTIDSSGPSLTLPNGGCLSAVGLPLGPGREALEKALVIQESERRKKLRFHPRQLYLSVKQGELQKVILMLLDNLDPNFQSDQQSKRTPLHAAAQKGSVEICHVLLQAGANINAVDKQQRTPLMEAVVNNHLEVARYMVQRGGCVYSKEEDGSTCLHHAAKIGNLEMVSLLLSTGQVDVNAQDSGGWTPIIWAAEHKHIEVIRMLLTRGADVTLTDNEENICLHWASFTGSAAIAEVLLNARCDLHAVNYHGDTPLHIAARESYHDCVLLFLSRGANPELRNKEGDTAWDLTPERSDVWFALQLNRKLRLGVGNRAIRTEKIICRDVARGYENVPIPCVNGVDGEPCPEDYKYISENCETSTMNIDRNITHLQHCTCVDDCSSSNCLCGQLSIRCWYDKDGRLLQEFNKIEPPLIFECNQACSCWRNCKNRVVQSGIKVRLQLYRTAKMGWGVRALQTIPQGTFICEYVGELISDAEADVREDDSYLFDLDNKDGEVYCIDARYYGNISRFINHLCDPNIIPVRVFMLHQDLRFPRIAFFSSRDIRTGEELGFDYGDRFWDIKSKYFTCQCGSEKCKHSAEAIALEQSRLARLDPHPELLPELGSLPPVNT

Substance: GLP ANK-SET, tag cleaved (domain or fragment)
stoichiometry N [1]: 1

Substance: GLP ANK-SET, N-terminally Maltose Binding Protein tagged (MBP:GLP) (domain or fragment)
stoichiometry N [2]: 1

Substance: G9a ANK-SET homodimer (from UniProt Q96KQ7)
Kd [3]: 100 µM

Next, values leading:

stoichiometry N [2]: 2
Substance: G9a ANK-SET, N-terminally 6xHis-tagged (His:G9a) or N-terminally Maltose Binding Protein tagged (MBP:G9a) (domain or fragment)

fold reduced binding [4]: 12.5 times | Kd [5]: 26.3 µM
Substance: GLP ANK-SET homodimer (complex)
